Results as given in the supplement of paper PMC12764529.
± gives the half width of the 95% confidence interval.

Legend:
[1] = folding stability dG unfold (combined trypsin and chymotrypsin); higher = more stable
Procedure, shortened: (§1)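 How resistant each design was to proteolysis was captured as K50, inferred by Bayesian fitting of sequencing counts. Unfolding free energy was then derived relative to a sequence-predicted unfolded-state K50 and a shared folded-state K50, per protease or combined. Digestion used trypsin and chymotrypsin at 11 threefold-diluted concentrations plus a no-protease condition, on mini-proteins under 80 residues without cysteine in a PA-tagged cDNA display construct. Designs were kept only when AlphaFold2 dimer inter-PAE was above 15.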

[2] = folding stability dG unfold from trypsin proteolysis; higher = more stable
Procedure, shortened: as §1

[3] = folding stability dG unfold from chymotrypsin proteolysis; higher = more stable
Procedure, shortened: as §1

Sequence	folding stability dG unfold [1]	folding stability dG unfold [2]	folding stability dG unfold [3]
SAGGSAGGSPPPDVPVDVGERVEYHPPGGVVVREYRTPEGRLIRVEIEELEGGELVRRVVLPLSAGGSAGGS [r12_264_JUSTAS]	1.25 ± 0.17 kcal/mol	1.14 ± 0.095 kcal/mol	1.33 ± 0.07 kcal/mol
SAGGSAGGSAGGPTITSSKIVAEYPGGKVIEVTIEEPLPTPSTVTKTVTLFIPEGSVLLSAGGSAGGSAGGS [r10_1183_JUSTAS]	0.361 ± 0.34 kcal/mol	0.536 ± 0.087 kcal/mol	0.402 ± 0.15 kcal/mol
SAGGSSSSSYTLNYPDKRVNVSVSHPPSGPLNVTITVYDPNGNKTKTITSPVGSLEKAKSLLEKLLSAGGSA [r2_82_JUSTAS]	1.45 ± 0.11 kcal/mol	1.63 ± 0.04 kcal/mol	1.28 ± 0.062 kcal/mol
SAGGSAWPAKEIAKELNPGFPVDVEPEPVPNKDGKDMVTIEARFPNGWKIQIVFRNGKPEAIQWQKSAGGSA [r15_417_TrROS]	1.97 ± 0.095 kcal/mol	1.47 ± 0.032 kcal/mol	2.28 ± 0.11 kcal/mol
SAGGSAGGSAGSMVTKTTTVEEKIGPGNLKLVKEKITIYDPSTGKPIKEETKITIEPVLLSAGGSAGGSAGG [r17_317_JUSTAS]	0.148 ± 0.38 kcal/mol	-0.493 ± 0.16 kcal/mol	0.452 ± 0.24 kcal/mol
SAGGSAGGSAGGMYVLIKITNPKTKKEISILIKVKPGDKITFTLPNGAKVEIIELPPEESAGGSAGGSAGGS [r10_957_TrROS_Hall]	3.92 ± 0.22 kcal/mol	3.3 ± 0.13 kcal/mol	4.28 ± 0.068 kcal/mol
SAGGSANEILEKLGYPEENIVERKKVFKLPNGTELYEYVIPKTENGVTATILVEKTPKGVKIKVLPSAGGSA [r15_813_JUSTAS]	0.318 ± 0.22 kcal/mol	-0.642 ± 0.44 kcal/mol	0.414 ± 0.25 kcal/mol
SAKPKVIAEITIYNKETGKVVRITLTDEALEEAKKKGLKEVKLTVEIEVVNPDGSKKTFKMEITLKVEDSAG [r14_100_TrROS_Hall]	3.96 ± 0.26 kcal/mol	2.77 ± 0.26 kcal/mol	4.08 ± 0.17 kcal/mol
SAGGKIEIHPDTLVVRIEVENKDGSTEEITLELKGLTEEELEDLLKELAAQLPDPDVKVKIVEIRRLPSAGG [r13_29_TrROS_Hall]	2.43 ± 0.13 kcal/mol	2.63 ± 0.13 kcal/mol	2.49 ± 0.12 kcal/mol
SAGGSAGGSAPVIRIEVDGKVYEIPADVLKEKGLTIEELAEELEKKHNIKVEKVEDGTIRVTSAGGSAGGSA [r18_7_TrROS_Hall]	2.1 ± 0.078 kcal/mol	1.66 ± 0.067 kcal/mol	2.41 ± 0.039 kcal/mol
SAGGSASMIVKEVKDKVDPAGSVPPDAVIRLETKVDPATGVWTIKVYTEEGKEIGESTVFVKPGILSAGGSA [r15_134_JUSTAS]	0.602 ± 0.069 kcal/mol	0.447 ± 0.054 kcal/mol	0.629 ± 0.083 kcal/mol
SAGGSAGGSAYTINIWVPPGMPKEEAADYIADWLHERHGIPDIKVSVEQDPDGMTKVTITVKSAGGSAGGSA [r18_1_TrROS]	2.52 ± 0.085 kcal/mol	2.32 ± 0.14 kcal/mol	2.77 ± 0.033 kcal/mol
SAGGSAGGSAGIEKTKDGVYKITIYNPSTGKKTEIYVPSSAPYVAGPVVLELVKNKAIIESAGGSAGGSAGG [r11_538_TrMRF]	0.47 ± 0.055 kcal/mol	-0.296 ± 0.074 kcal/mol	0.802 ± 0.11 kcal/mol
SAGGPLTEEQLKEQAKQIKDQLAKEFADMNGFPVTEIDDVEVVPDGWISIEIEYPGMGMPYTITIPWSAGGS [r16_622_TrROS]	1.02 ± 0.095 kcal/mol	0.887 ± 0.053 kcal/mol	1.02 ± 0.16 kcal/mol
SAGGSAGGSPKPKVKKFNMEPVEIEPNPDNGHLSIRFPNGYYIQFHYDDDGEYELQIMPPDDLSAGGSAGGS [r12_351_TrROS]	0.455 ± 0.17 kcal/mol	-0.0555 ± 0.14 kcal/mol	0.764 ± 0.14 kcal/mol
SKYVQVRFPNYTIMVKKRKSPNGKPEVEVMLYNPPNGKMIPVEVKSPEDAEEAVKDAIRAMFPDEELRDLSA [r9_749_TrROS]	0.687 ± 0.17 kcal/mol	0.827 ± 0.09 kcal/mol	0.46 ± 0.47 kcal/mol
SAGGSAPAEKVAQTLLDLGFTEVRVEEDPETDLVTVEVIDPDGTRLEIRVDPKDPRIVEIRPRSLKSAGGSA [r15_648_TrMRF]	-0.154 ± 0.16 kcal/mol	-0.351 ± 0.14 kcal/mol	-0.0972 ± 0.15 kcal/mol
SAGGSANWRPIEIELMIGIKSKEQAKEWAEEIADNFPGIKDVEVEEFPDPDGHVMVAVDVKFYVPESAGGSA [r15_726_TrROS]	0.969 ± 0.075 kcal/mol	0.755 ± 0.057 kcal/mol	0.999 ± 0.031 kcal/mol
SAGGSAGGSAGGSPFTIKIKMEQPNGRKRTYTIEGEGDLDQIAKELEKHYPGRIKDIEISAGGSAGGSAGGS [r4_412_TrROS]	0.548 ± 0.27 kcal/mol	-0.101 ± 0.31 kcal/mol	0.783 ± 0.23 kcal/mol
SAGGGPMPVEKEVEITLEVDPSDPASVRARLEALAASRGVEEITEITEETLPDGSRRVTAKVKWLLPVSAGG [r13_222_JUSTAS]	0.875 ± 0.087 kcal/mol	1.15 ± 0.067 kcal/mol	0.397 ± 0.15 kcal/mol
SAGGSAGGSAGDNWVIRIWWPNGKEQVFPGNLEDLLERIPPDNKDMKVEIFDPDDGKEIWSAGGSAGGSAGG [r11_353_TrROS]	1.1 ± 0.17 kcal/mol	1.09 ± 0.043 kcal/mol	1.01 ± 0.17 kcal/mol

Sequence	folding stability dG unfold [1]	folding stability dG unfold [2]	folding stability dG unfold [3]
SAGGSAGGSWYLRIEYMNGKEREFPFPPDMPGQPAEEIADKLGSPNMKVEFYDPEGEPREFDISAGGSAGGS [r12_411_TrROS]	0.726 ± 0.18 kcal/mol	0.589 ± 0.071 kcal/mol	0.754 ± 0.13 kcal/mol
SAGLGIWRDPDMWKLEFNLLLPNGYVYKVEVTVTPDGIDVSIEPVPIPPVPTADSPEDAKEYQKQNENQSAG [r5_272_TrROS]	2.06 ± 0.35 kcal/mol	1.06 ± 0.13 kcal/mol	2.61 ± 0.18 kcal/mol
SAGKIIKFKTKANENASITVPEENKILKIKVYKPNGTLLDEYEVEVKPNKTLVLNIPDDNLYVVVEPIPSAG [r5_797_TrMRF]	0.975 ± 0.057 kcal/mol	0.56 ± 0.025 kcal/mol	1.17 ± 0.1 kcal/mol
SAGGSAGGSKPRLVLEIKIKAESEEEAREEVEKALQEKFGLKIKSVEIEREEDYITVRVEIEPSAGGSAGGS [r12_265_TrROS_Hall]	1.92 ± 0.23 kcal/mol	2.26 ± 0.081 kcal/mol	2 ± 0.061 kcal/mol
SAGGMKYVLKIEITFKKPSGPPEKKIILVEFDPDFPDIPLEEAAERVLNEIAPKYGDEAKVSEISPVSAGGS [r8_101_TrMRF]	2 ± 0.13 kcal/mol	1.3 ± 0.054 kcal/mol	2.35 ± 0.066 kcal/mol
KGVVVGPDEPLVSDDGKLVVFPNAQITYDPKTGKPTIAFHVDPEALAQGDPEALKGLRDLAKELNIDELTPS [r1_438_TrMRF]	0.692 ± 0.12 kcal/mol	-0.156 ± 0.1 kcal/mol	1.03 ± 0.044 kcal/mol
SAGGSAGGSAGGKIIEVKEENGEVYLLVEVDGKKEVIKFPKGAKLEEIKVDVKEVKVLKPSAGGSAGGSAGG [r7_373_TrROS_Hall]	0.539 ± 0.12 kcal/mol	-0.0364 ± 0.065 kcal/mol	0.563 ± 0.1 kcal/mol
SAGGSAGGSASVVVTKETLPNGETRITTTTTTTTTVTVYDNNETVTTTTTTTTTTVVPKSLLSAGGSAGGSA [r18_34_JUSTAS]	1.38 ± 0.084 kcal/mol	0.601 ± 0.055 kcal/mol	1.66 ± 0.039 kcal/mol
SAGPVIATADVEVYEDGTAKITLTLRTLTENGELLPDVTLPITLPLPPGSKATITVNLDDGEITITVGDSAG [r5_179_TrMRF]	3.96 ± 0.11 kcal/mol	4.07 ± 0.12 kcal/mol	3.79 ± 0.16 kcal/mol
SAGPTVRIHLPGFEPIRFPPGDELALPFPNGYYLIIRRKPDGEVEVFPMGGEERKLPDADEVEIYMFPASAG [r5_869_TrROS]	1.07 ± 0.13 kcal/mol	0.665 ± 0.11 kcal/mol	1.32 ± 0.15 kcal/mol
SAGPYYIITVTIPLPNLSPDLQEDFPGQKVTFMFIVDPGMDMEQKRQIKEELRDFGIKDVDIMPADDIKSAG [r5_60_TrROS]	2.2 ± 0.1 kcal/mol	1.27 ± 0.026 kcal/mol	2.58 ± 0.03 kcal/mol
SWIPVKEIAKYIAREFGMPKENLDNIEEVDPITVHPNPDGWVQVEATIRFRNPRNGKGHEMRIEIHVPKKSA [r9_230_TrROS]	1.96 ± 0.09 kcal/mol	1.66 ± 0.024 kcal/mol	2.22 ± 0.11 kcal/mol
SAGGSAGGSAGGKLPPGQPIKATIEIYIFMISYDGGEPKIHEFPITIEHTFRLPDPDALSAGGSAGGSAGGS [r10_745_TrROS]	3.42 ± 0.17 kcal/mol	2.14 ± 0.086 kcal/mol	3.9 ± 0.091 kcal/mol
SAGGSRRLEFMFYNPEAGFLIKIEVTYDPDDPGYYKIRVEVYPPDGEPIFPVEIYVPPGDDIKIKFPSAGGS [r16_654_TrROS]	4.31 ± 0.29 kcal/mol	3.54 ± 0.35 kcal/mol	4.42 ± 0.13 kcal/mol
SAGGSAGMNRVSLKPLPDGTYEVTITYPDGSTSTYTVPGPAVSLEEILKRLNIPESIEVEDVEPLGSAGGSA [r15_167_JUSTAS]	3.52 ± 0.075 kcal/mol	2.64 ± 0.089 kcal/mol	3.87 ± 0.059 kcal/mol
SAGGSAGGSAMTIEELAKKGYEIRIVGPDGKVRTFKVGESLEEIAEKLGLAPGAKIEIRKVSAGGSAGGSAG [r3_216_TrROS_Hall]	1.88 ± 0.049 kcal/mol	1.48 ± 0.024 kcal/mol	2.07 ± 0.027 kcal/mol
SAGGSAGGRIMIPVKNIKGQPAEEAKQWLKAILRELFPPGMKIDIDVQPDKDGEYWVTIDIKPPSAGGSAGG [r6_964_TrROS]	2 ± 0.44 kcal/mol	1.64 ± 0.23 kcal/mol	2.48 ± 0.099 kcal/mol
SAGGSAGGSAGGKFKPGQTIKIKLKVKVKVNGKEYEFEKELEIKIKPKVTMSEEELKKKSAGGSAGGSAGGS [r10_175_TrROS_Hall]	1.39 ± 0.26 kcal/mol	0.169 ± 0.16 kcal/mol	2.12 ± 0.09 kcal/mol
SAGMIEKLIREAFPAGAKSIRIEVRRLPDGSLLVRIDIHFDDPEVRRALADRIEELLGLPIPDLRVSPDSAG [r5_542_TrMRF]	2.81 ± 0.042 kcal/mol	2.26 ± 0.035 kcal/mol	3.067 ± 0.028 kcal/mol
SAGGSAGGSAGGPIPGSTIPSVPVKIVNIHPDGTKTEYFNSDIPIDALKEKFPGEIEFESSAGGSAGGSAGG [r17_125_TrMRF]	0.703 ± 0.065 kcal/mol	0.562 ± 0.065 kcal/mol	0.734 ± 0.029 kcal/mol
SAGGWRIKLERDPENGKIKVSIERSPNEGYATVEVKLPNGKPLEIPGPMDSPDEMEEKARDYIKKLLSAGGS [r16_319_TrROS]	0.991 ± 0.1 kcal/mol	0.777 ± 0.09 kcal/mol	1.01 ± 0.086 kcal/mol
